Laboratory results: IntAct's records for PubMed 23208550

B1: Arrestin domain-containing protein 3 (Homo sapiens), Q96B67 (parent)
chain: MVLGKVKSLTISFDCLNDSNVPVYSSGDTVSGRVNLEVTGEIRVKSLKIHARGHAKVRWTESRNAGSNTAYTQNYTEEVEYFNHKDILIGHERDDDNSEEGFHTIHSGRHEYAFSFELPQTPLATSFEGRHGSVRYWVKAELHRPWLLPVKLKKEFTVFEHIDINTPSLLSPQAGTKEKTLCCWFCTSGPISLSAKIERKGYTPGESIQIFAEIENCSSRMVVPKAAIYQTQAFYAKGKMKEVKQLVANLRGESLSSGKTETWNGKLLKIPPVSPSILDCSIIRVEYSLMVYVDIPGAMDLFLNLPLVIGTIPLHPFGSRTSSVSSQCSMNMNWLSLSLPERPEAPPSYAEVVTEEQRRNNLAPVSACDDFERALQGPLFAYIQEFRFLPPPLYSEIDPNPDQSADDRPSCPSR

Assays:
[1] = variants of: B1; conditions: with nedd4_human NEDD4, P46934
Sequence of nedd4_human NEDD4, P46934 (P46934 whole entry): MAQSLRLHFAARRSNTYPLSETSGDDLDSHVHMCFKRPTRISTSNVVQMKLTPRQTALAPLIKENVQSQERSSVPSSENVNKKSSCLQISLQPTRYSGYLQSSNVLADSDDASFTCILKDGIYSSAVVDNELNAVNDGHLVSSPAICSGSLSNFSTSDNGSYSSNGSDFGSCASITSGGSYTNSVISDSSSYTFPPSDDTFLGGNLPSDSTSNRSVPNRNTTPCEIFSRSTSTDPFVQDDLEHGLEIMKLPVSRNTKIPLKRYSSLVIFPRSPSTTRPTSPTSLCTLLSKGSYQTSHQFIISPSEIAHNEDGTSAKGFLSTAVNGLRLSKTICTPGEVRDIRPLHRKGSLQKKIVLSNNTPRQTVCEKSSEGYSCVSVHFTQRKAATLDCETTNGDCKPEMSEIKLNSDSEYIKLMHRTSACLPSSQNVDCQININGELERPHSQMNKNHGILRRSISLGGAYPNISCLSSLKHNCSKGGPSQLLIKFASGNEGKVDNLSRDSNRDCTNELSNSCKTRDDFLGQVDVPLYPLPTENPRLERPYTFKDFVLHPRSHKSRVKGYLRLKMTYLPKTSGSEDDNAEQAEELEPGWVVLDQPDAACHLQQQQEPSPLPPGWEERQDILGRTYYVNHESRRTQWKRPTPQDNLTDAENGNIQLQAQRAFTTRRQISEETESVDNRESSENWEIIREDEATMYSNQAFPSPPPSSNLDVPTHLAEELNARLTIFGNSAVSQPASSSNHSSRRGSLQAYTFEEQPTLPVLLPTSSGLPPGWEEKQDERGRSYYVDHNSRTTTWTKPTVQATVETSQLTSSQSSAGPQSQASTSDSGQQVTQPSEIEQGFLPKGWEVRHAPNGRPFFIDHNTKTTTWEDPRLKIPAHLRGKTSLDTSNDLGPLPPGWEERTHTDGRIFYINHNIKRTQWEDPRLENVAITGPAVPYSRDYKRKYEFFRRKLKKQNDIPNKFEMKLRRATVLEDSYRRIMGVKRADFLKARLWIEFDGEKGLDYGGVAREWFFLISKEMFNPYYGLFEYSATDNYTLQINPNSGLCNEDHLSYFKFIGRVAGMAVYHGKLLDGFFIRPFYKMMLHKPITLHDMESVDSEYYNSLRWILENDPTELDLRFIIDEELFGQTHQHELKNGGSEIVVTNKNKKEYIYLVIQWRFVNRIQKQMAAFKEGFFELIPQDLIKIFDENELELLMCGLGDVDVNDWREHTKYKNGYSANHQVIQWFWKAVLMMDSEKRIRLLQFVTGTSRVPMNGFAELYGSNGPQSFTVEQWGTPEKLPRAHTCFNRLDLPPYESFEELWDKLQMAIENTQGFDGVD

hgs_human HGS, O14964 = variants of: B1; conditions: with hgs_human HGS
Sequence of hgs_human HGS, O14964 (O14964 whole entry): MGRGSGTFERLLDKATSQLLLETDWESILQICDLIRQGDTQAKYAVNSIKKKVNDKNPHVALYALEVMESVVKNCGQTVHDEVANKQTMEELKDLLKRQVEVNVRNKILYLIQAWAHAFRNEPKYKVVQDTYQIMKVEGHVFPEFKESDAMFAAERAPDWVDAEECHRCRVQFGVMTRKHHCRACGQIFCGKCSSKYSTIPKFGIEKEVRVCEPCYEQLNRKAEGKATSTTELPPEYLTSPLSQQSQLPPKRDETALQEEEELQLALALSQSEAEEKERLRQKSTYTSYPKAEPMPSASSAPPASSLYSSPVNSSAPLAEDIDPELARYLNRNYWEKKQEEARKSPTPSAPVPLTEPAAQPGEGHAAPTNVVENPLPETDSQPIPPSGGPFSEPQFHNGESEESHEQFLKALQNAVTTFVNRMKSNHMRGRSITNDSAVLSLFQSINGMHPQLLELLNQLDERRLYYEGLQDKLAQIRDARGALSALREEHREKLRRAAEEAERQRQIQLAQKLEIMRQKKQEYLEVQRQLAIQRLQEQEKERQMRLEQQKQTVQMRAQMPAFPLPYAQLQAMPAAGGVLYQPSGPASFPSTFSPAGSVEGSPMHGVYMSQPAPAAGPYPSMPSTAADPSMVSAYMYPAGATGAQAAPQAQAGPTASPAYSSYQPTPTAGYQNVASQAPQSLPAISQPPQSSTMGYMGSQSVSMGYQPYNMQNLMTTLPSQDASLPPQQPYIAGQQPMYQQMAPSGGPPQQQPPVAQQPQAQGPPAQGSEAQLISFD

[2] = variants of: B1; conditions: with adrb2_human ADRB2, P07550
[3] = variants of: B1; conditions: with adrb2_human ADRB2, P07550; remark: listed apart in the source

Row | effect of a mutation on the interaction [1] | effect of a mutation on the interaction (hgs_human HGS, O14964) | effect of a mutation on the interaction [2] | effect of a mutation on the interaction [3] | Variant
1 | disrupting interaction | disrupting interaction | decreasing interaction | disrupting interaction | P346A
2 | disrupting interaction | disrupting interaction | decreasing interaction | disrupting interaction | Y349A
3 | disrupting interaction | disrupting interaction | decreasing interaction | disrupting interaction | Y394A
4 | disrupting interaction | disrupting interaction | decreasing interaction | disrupting interaction | P391A
5 | disrupting interaction | disrupting interaction | decreasing interaction | disrupting interaction | P392A
6 | disrupting interaction | disrupting interaction | decreasing interaction | disrupting interaction | P347A
